± gives the standard deviation of the averaged measurements.
B1: library; a variant is named by its letters at N, in order (parent)
chain: GCUGUCACCGGUGUAUUACCCUAGUGGUCGACCGGUCUGAUGAGUCUNNNNNNAGACGAAACAGC

Assays:
[1] = variants of: B1; test: normalized RNA/DNA level with ligand (relative to sTRSVctl = 100) (log10 (% of sTRSVctl)); ligand: hypoxanthine (xanthine aptamer); higher = less ribozyme self-cleavage, higher mRNA level; conditions: ligand concentration (+) RNA-Seq: 5 mM, HEK293T, reporter: mCherry (pCS4076), ligand present: yes
In short: (§1)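 Ribozyme switch library plasmids with mCherry reporters (eGFP in certain ligand experiments) went into HEK293T cells at 4 µg per 6-well well. Where ligand was used, it was applied 1 h before transfection, and total RNA was extracted with EDTA 72 h later for reverse transcription, amplification, barcoding and sequencing. RNA level is the RNA-to-DNA read ratio normalized to a spiked-in non-cleaving sequence or to the leading sequences, then scaled and log-transformed. Scaling was ×100 with log10, the leading set comprised 25 sequences, and the cutoff was ≥100 DNA reads.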

[2] = variants of: B1; test: normalized RNA/DNA level without ligand (relative to sTRSVctl = 100) (log10 (% of sTRSVctl)); ligand: hypoxanthine (xanthine aptamer); higher = less ribozyme self-cleavage, higher mRNA level; conditions: HEK293T, reporter: mCherry (pCS4076), ligand present: no
In short: as §1

| Variant | normalized RNA/DNA level with ligand (log10) [1] | normalized RNA/DNA level without ligand (log10) [2] |
| --- | --- | --- |
| CUGGAC | 1.97 ± 0.03 | 1.87 ± 0.03 |
| CUUAAU | 1.9 ± 0.0027 | 1.76 ± 0.028 |
| CUUAAA | 1.899 ± 0.0031 | 1.8 ± 0.036 |
| CUUAAG | 1.93 ± 0.081 | 1.69 ± 0.018 |
| GUGUCC | 1.97 ± 0.036 | 1.776 ± 0.0043 |
| GUGUCU | 1.95 ± 0.04 | 1.85 ± 0.019 |
| GUGUCA | 1.94 ± 0.052 | 1.77 ± 0.043 |
| GUGUUU | 1.92 ± 0.041 | 1.87 ± 0.046 |
| GUGUUA | 1.912 ± 0.017 | 1.79 ± 0.047 |
| GUGUUC | 1.909 ± 0.0089 | 1.84 ± 0.044 |
| CUGUUG | 1.964 ± 0.0068 | 1.8708 ± 0.00036 |
| CUGUUU | 2.02 ± 0.046 | 1.956 ± 0.006 |
| CUGUUC | 1.97 ± 0.021 | 1.861 ± 0.0058 |
| UUUAUG | 1.92 ± 0.027 | 1.772 ± 0.014 |
| UUUAUC | 1.97 ± 0.03 | 1.99 ± 0.021 |
| CUUAGA | 1.984 ± 0.0081 | 1.852 ± 0.0069 |
| CUUAGU | 1.936 ± 0.016 | 1.906 ± 0.0051 |
| CUUAGG | 1.94 ± 0.075 | 1.84 ± 0.053 |
| CUUAGC | 1.944 ± 0.011 | 1.87 ± 0.018 |
| AUUAUC | 2.02 ± 0.021 | 1.97 ± 0.02 |
| AUUAUG | 1.891 ± 0.0046 | 1.48 ± 0.043 |
| UUGGGA | 2.02 ± 0.07 | 1.71 ± 0.053 |
| UUGGGC | 2.05 ± 0.032 | 1.914 ± 0.012 |
| UUGGGG | 1.91 ± 0.047 | 1.82 ± 0.042 |

| Variant | normalized RNA/DNA level with ligand (log10) [1] | normalized RNA/DNA level without ligand (log10) [2] |
| --- | --- | --- |
| UUGGGU | 2.014 ± 0.011 | 1.82 ± 0.053 |
| CUGAUU | 1.94 ± 0.096 | 1.87 ± 0.031 |
| CUGAUG | 1.936 ± 0.0068 | 1.646 ± 0.0062 |
| CUGAUC | 1.98 ± 0.035 | 1.949 ± 0.019 |
| CUGGCA | 1.971 ± 0.0092 | 1.88 ± 0.039 |
| CUGGCC | 1.98 ± 0.16 | 1.91 ± 0.042 |
| CUGGCG | 1.97 ± 0.029 | 1.827 ± 0.0095 |
| CUGGCU | 1.96 ± 0.077 | 1.915 ± 0.0057 |
| GUUACA | 1.92 ± 0.031 | 1.8382 ± 0.0018 |
| CUGCAA | 1.933 ± 0.0062 | 1.773 ± 0.015 |
| CUGCAC | 1.94 ± 0.057 | 1.869 ± 0.018 |
| CUGCAU | 1.94 ± 0.043 | 1.8 ± 0.074 |
| AUGUGC | 1.853 ± 0.018 | 1.667 ± 0.0026 |
| GUGAUA | 1.89 ± 0.073 | 1.75 ± 0.027 |
| GUGAUU | 1.92 ± 0.0091 | 1.847 ± 0.0028 |
| GUGAUC | 1.93 ± 0.036 | 1.54 ± 0.13 |
| CUGGGU | 2 ± 0.069 | 1.881 ± 0.005 |
| CUGGGC | 1.98 ± 0.047 | 1.902 ± 0.0037 |
| CUGGGA | 2.03 ± 0.061 | 1.857 ± 0.015 |
| AUUAAC | 1.881 ± 0.0094 | 1.8077 ± 0.0004 |
| AUGUUA | 1.92 ± 0.026 | 1.761 ± 0.011 |
| AUGUUC | 1.94 ± 0.14 | 1.85 ± 0.034 |
| CUGUGA | 1.976 ± 0.0082 | 1.82 ± 0.065 |
| CUGUGC | 1.907 ± 0.018 | 1.86 ± 0.043 |

| Variant | normalized RNA/DNA level with ligand (log10) [1] | normalized RNA/DNA level without ligand (log10) [2] |
| --- | --- | --- |
| CUGUGU | 1.95 ± 0.047 | 1.898 ± 0.0077 |
| CUGCCU | 1.95 ± 0.097 | 1.92 ± 0.036 |
| CUGCCC | 1.99 ± 0.039 | 1.971 ± 0.0093 |
| CUGCCA | 2.03 ± 0.043 | 1.886 ± 0.011 |
| CUGCCG | 1.96 ± 0.082 | 1.8 ± 0.026 |
| GUGCGC | 1.9 ± 0.023 | 1.74 ± 0.098 |
| GUGCGA | 1.918 ± 0.0038 | 1.58 ± 0.018 |
| UUUAAG | 1.915 ± 0.016 | 1.71 ± 0.043 |
| UUUAAA | 1.94 ± 0.034 | 1.76 ± 0.036 |
| UUGUGU | 1.97 ± 0.051 | 1.93 ± 0.043 |
| UUGUGA | 1.985 ± 0.003 | 1.8 ± 0.062 |
| UUGUGC | 2.02 ± 0.024 | 1.99 ± 0.047 |
| GUGACC | 1.931 ± 0.012 | 1.74 ± 0.019 |
| GUGACA | 1.9 ± 0.04 | 1.78 ± 0.033 |
| AUGAUC | 1.98 ± 0.039 | 1.93 ± 0.022 |
| AUGAUU | 1.92 ± 0.036 | 1.709 ± 0.003 |
| GUGGCC | 1.98 ± 0.027 | 1.88 ± 0.023 |
| GUGGCU | 1.96 ± 0.042 | 1.881 ± 0.0077 |
| GUGGCA | 1.98 ± 0.02 | 1.83 ± 0.072 |
| GUGGGC | 1.81 ± 0.1 | 1.33 ± 0.11 |
| UUGGCA | 1.966 ± 0.0098 | 1.907 ± 0.018 |
| UUGGCC | 1.97 ± 0.066 | 2.013 ± 0.0026 |
| UUGGCU | 1.98 ± 0.042 | 1.988 ± 0.013 |
| UUCUCU | 1.99 ± 0.084 | 1.89 ± 0.051 |

| Variant | normalized RNA/DNA level with ligand (log10) [1] | normalized RNA/DNA level without ligand (log10) [2] |
| --- | --- | --- |
| UUCUCA | 1.98 ± 0.033 | 1.918 ± 0.013 |
| UUCUCC | 1.97 ± 0.072 | 1.99 ± 0.082 |
| GUUAGC | 1.91 ± 0.023 | 1.683 ± 0.0085 |
| GUUAGU | 1.9 ± 0.1 | 1.786 ± 0.011 |
| CUCUUA | 1.895 ± 0.0051 | 1.825 ± 0.012 |
| CUCUUG | 1.93 ± 0.045 | 1.87 ± 0.044 |
| CUCUUU | 2 ± 0.0092 | 1.912 ± 0.014 |
| GUGGAG | 1.79 ± 0.028 | 1.28 ± 0.1 |
| GUGGAC | 1.889 ± 0.011 | 1.58 ± 0.068 |
| CUGCUC | 1.96 ± 0.063 | 2.01 ± 0.0072 |
| CUGCUA | 1.95 ± 0.052 | 1.77 ± 0.043 |
| CUGCUG | 1.92 ± 0.094 | 1.815 ± 0.0021 |
| CUGCUU | 1.962 ± 0.011 | 1.9272 ± 0.0008 |
| AUGAGC | 1.8938 ± 0.00087 | 1.57 ± 0.055 |
| AUGAGU | 1.87 ± 0.026 | 1.44 ± 0.11 |
| AUGCGC | 1.93 ± 0.051 | 1.73 ± 0.031 |
| AUGCGU | 1.94 ± 0.025 | 1.819 ± 0.016 |
| UUGUAA | 1.976 ± 0.014 | 1.9 ± 0.042 |
| UUGUAC | 2 ± 0.025 | 1.973 ± 0.0097 |
| UUGUAG | 1.99 ± 0.025 | 1.84 ± 0.025 |
| UUGGAC | 1.95 ± 0.02 | 1.92 ± 0.043 |
| UUGGAA | 1.942 ± 0.0068 | 1.771 ± 0.0035 |
| UUGGAG | 1.95 ± 0.041 | 1.684 ± 0.0079 |
| UUGGAU | 2.004 ± 0.0096 | 1.8482 ± 4.2e-06 |

| Variant | normalized RNA/DNA level with ligand (log10) [1] | normalized RNA/DNA level without ligand (log10) [2] |
| --- | --- | --- |
| CUCUCA | 1.96 ± 0.0068 | 1.91 ± 0.027 |
| CUCUCU | 1.89 ± 0.034 | 1.904 ± 0.012 |
| AUCUCC | 1.97 ± 0.039 | 1.9 ± 0.058 |
| AUCUCU | 1.99 ± 0.075 | 1.937 ± 0.0021 |
| AUCUCG | 1.89 ± 0.024 | 1.59 ± 0.06 |
| GUUAAA | 1.933 ± 0.0032 | 1.798 ± 0.0025 |
| GUUAAG | 1.853 ± 0.0019 | 1.48 ± 0.027 |
| CUGAAC | 1.9 ± 0.066 | 1.76 ± 0.019 |
| CUGAAU | 1.93 ± 0.062 | 1.74 ± 0.062 |
| CUGUCU | 2.03 ± 0.079 | 1.89 ± 0.077 |
| CUGUCG | 1.98 ± 0.027 | 1.84 ± 0.032 |
| CUGUCC | 2.01 ± 0.024 | 1.92 ± 0.053 |
| GUCUCC | 1.99 ± 0.047 | 1.94 ± 0.084 |
| GUCUCA | 1.965 ± 0.019 | 1.943 ± 0.0073 |
| AUGGAU | 1.912 ± 0.0082 | 1.6566 ± 0.0015 |
| UUGACU | 1.95 ± 0.077 | 1.9 ± 0.042 |
| UUGACC | 1.96 ± 0.049 | 1.987 ± 0.011 |
| GUGAGU | 1.94 ± 0.028 | 1.639 ± 0.0057 |
| CUUAUG | 1.91 ± 0.039 | 1.91 ± 0.018 |
| CUUAUC | 1.98 ± 0.02 | 1.987 ± 0.013 |

Source: the supplement of paper PMC6757056
